pKd: −log10 of the molar value.
How the values were obtained:
[1] = target: BG505 SOSIP.v4.1 GT1.1 trimer (BG505 SOSIP germline trimer 1.1) (HIV-1 (isolate BG505)) (UniProt Q2N0S6); assay: SPR; Biacore 3000; His-tagged GT1 and GT1.1 trimers captured in parallel flow cells, IgG injected from 1 μM in two- or four-fold dilutions; association 300 s, dissociation 600 s, 50 uL/min; bivalent model
[2] = target: gl-3BNC60 IgG (inferred germline precursor of 3BNC60); assay: SPR; settings: antibody dilution series, colour key 0.98-1000 nM; KD1 fitted by bivalent modeling; parent: ND
[3] = target: 12A12 germline (gl-12A12); assay: SPR; settings: antibody dilution series, colour key 0.98-1000 nM; KD1 fitted by bivalent modeling; parent: ND
3BNC60 mature = assay: SPR; settings: antibody dilution series, colour key 0.98-1000 nM; KD1 fitted by bivalent modeling
[4] = target: PGV19 germline (gl-PGV19); assay: SPR; settings: antibody dilution series, colour key 0.98-1000 nM; KD1 fitted by bivalent modeling
[5] = target: VRC01 germline (gl-VRC01); assay: SPR; settings: antibody dilution series, colour key 0.98-1000 nM; KD1 fitted by bivalent modeling

gl-3BNC60 IgG (inferred germline precursor of 3BNC60) (antibody), sequence (VH): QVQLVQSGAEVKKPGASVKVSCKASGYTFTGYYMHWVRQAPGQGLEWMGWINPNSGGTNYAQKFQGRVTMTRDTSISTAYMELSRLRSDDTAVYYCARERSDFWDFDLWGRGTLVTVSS
gl-3BNC60 IgG (inferred germline precursor of 3BNC60) (antibody), sequence (VL): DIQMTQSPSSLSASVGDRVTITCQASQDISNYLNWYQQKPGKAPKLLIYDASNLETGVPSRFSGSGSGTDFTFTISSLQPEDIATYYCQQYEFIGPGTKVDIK

Substance “gl-3BNC60 IgG (inferred germline precursor of 3BNC60) (antibody)” has a KD1 (bivalent model) [1] of 780 nM.
Work on “BG505 SOSIP.v4.1-GT1 trimer (from UniProt Q2N0S6) E275K” yielded a pKd [2] of 6.11, a pKd [3] of 6.70 and a pKd (3BNC60 mature) greater than 10.00. For the same substance, the pKd [4] was 7.62 and the pKd [5] was 6.44.

Source: publication PMC11783328
